How the values were obtained:
[1] = Jones, 1996; cited from earlier work
[2] = Jones, 1996; cited from earlier work; remark: listed apart in the source
DCMTase = target: T1, DCMTase (Mus musculus, UniProt P13864); experiment: Steady-state kinetic assay: initial velocity, substrate inhibition, DNA length; assay type: biochemical; conditions: concentrations up to 30 times Km^AdoMet
T1 construct: DCMTase was purified from mouse erythroleukemia cells as previously described; endogenous in cells; host or cells: mouse erythroleukemia (MEL) cells; enzyme purified from them
T1 sequence (P13864 whole entry): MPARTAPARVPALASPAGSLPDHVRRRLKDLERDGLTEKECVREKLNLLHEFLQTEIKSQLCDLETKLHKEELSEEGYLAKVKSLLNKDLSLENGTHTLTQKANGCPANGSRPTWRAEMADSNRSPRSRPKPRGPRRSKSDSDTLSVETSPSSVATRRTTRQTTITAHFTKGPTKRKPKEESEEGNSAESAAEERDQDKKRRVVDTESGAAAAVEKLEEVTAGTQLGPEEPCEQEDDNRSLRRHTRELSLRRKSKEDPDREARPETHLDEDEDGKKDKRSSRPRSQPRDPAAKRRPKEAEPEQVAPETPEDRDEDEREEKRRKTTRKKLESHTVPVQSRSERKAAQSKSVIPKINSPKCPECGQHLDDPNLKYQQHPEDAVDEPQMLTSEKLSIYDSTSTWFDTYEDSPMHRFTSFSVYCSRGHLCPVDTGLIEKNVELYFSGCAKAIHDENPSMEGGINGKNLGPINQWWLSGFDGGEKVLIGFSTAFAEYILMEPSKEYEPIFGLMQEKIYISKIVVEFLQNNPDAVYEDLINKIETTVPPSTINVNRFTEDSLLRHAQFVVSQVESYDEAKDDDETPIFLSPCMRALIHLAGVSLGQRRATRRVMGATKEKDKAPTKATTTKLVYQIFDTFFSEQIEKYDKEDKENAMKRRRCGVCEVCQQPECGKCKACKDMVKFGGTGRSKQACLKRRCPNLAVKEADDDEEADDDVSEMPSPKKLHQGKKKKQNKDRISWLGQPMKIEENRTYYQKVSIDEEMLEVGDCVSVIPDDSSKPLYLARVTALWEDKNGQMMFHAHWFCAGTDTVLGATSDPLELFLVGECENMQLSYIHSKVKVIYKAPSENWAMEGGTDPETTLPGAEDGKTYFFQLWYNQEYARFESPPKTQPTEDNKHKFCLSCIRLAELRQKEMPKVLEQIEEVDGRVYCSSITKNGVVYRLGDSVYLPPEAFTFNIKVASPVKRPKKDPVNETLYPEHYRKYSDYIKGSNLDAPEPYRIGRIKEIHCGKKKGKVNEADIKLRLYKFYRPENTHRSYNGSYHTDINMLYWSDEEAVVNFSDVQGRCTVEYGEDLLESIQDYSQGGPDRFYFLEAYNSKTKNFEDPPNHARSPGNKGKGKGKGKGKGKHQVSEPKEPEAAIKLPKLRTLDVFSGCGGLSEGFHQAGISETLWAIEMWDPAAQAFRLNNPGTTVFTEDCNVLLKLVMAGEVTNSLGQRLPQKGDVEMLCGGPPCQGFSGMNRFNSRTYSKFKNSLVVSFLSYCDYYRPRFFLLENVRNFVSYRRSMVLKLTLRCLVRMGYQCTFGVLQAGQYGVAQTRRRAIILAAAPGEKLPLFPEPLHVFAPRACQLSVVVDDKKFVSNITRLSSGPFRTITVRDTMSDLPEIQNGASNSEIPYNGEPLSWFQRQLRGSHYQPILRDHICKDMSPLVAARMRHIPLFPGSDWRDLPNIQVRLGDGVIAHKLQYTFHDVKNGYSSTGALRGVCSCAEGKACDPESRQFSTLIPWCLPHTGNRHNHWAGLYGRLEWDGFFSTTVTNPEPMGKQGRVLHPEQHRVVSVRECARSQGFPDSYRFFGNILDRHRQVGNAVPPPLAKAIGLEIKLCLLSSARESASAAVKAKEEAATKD
Method: After preincubation at room temperature for up to 10 minutes, reactions were initiated by the addition of poly(dI.dC:dI.dC) and, if indicated, inhibitor DNA or reaction products. […] Single-stranded DNA was heated to 90° C. and quick cooled on ice, prior to initiation of the reaction. Freeze-thawed DNA produced equivalent results. Incubations were at 37° C. for 60 minutes. The poly(dI.dC:dI.dC) concentrations were 2.0, 4.0, 8.0, 16, 35, 80, 160, 250, 400, 700 and 1000 pM. In some experiments, GC-box a/b was the substrate, using 100 nM DCMTase and DNA concentrations of 0.20, 0.40, 1.0, 2.0, 4.0, 8.0, 15, 23 and 35 μM. […] The radioactivity above the background, determined from assays without added poly(dI.dC:dI.dC), was converted to initial velocities and expressed as picomoles of methyl groups transferred to poly(dI.dC:dI.dC) per hour and plotted in double reciprocal form. […]
The Michaelis-Menton equation was used for studies into DNA length contributions to catalysis using KaliedaGraph 2.1.2 (Synergy Software). […] All steady-state data were analyzed using regression analyses of the appropriate initial velocity equation, listed below, using the Cleland programs (Cleland, W. W., 1979, Statistical analysis of enzyme kinetic data. Methods in Enzymol. 63:103-138). […]

[3] = target: T2, DNA cytosine-5 methyltransferase (DCMTase, Dnmt1) (Mus musculus, UniProt P13864 P13864:1-1620); experiment: inhibition; Kis, noncompetitive with poly(dIdC:dIdC); Kii 6800 +/- 1200 nM; Tris pH 8.0, 37 C; conditions: tags: none; purified from mouse erythroleukemia (MEL) cells
T2 sequence (P13864 whole entry, one chain of several): as the sequence (P13864 whole entry) above
Method: For these reasons it was presumed that single-stranded GC-box substrates could act as dead-end inhibitors of the reaction with poly(dI.dC:dI.dC). Dead-end inhibitors can provide a strong methodology for assessing whether a kinetic mechanism is random or ordered. Inhibition of poly(dI.dC:dI.dC) methylation by single-stranded GC-box b was studied at 15 μM AdoMet. The data were best fit by equation 5, a standard equation for noncompetitive inhibition, and generated the intersecting double reciprocal pattern shown in FIG. 13. The inhibition constants were determined to be Kᵢₛ=3.6+/−1.5 μM and Kᵢᵢ=6.8+/−1.2 μM (Table 4). Kᵢᵢ is the inhibition constant associated with an intercept effect and Kᵢₛ is the inhibition constant associated with a slope effect from families of double reciprocal plots.

[4] = target: T2, DNA cytosine-5 methyltransferase …; experiment: EMSA; unit printed as mM (text indicates micromolar); conditions: tags: none; purified from mouse erythroleukemia (MEL) cells
Method: Gel mobility shift assays (GMSA) were performed with minor revisions to the original procedures (Fried, M., & Crothers, D. M., 1981, Equilibria and kinetics of the lac repressor-operator interactions by polyacrylamide gel electrophoresis, Nucleic Acids Res. 9:6505-6525; Garner, M. M. & Revzin, A., 1981, A gel electrophoresis method for quantifying the binding proteins to specific DNA regions: applications to components of the Escherichia coli lactose operon regulatory system, Nucleic Acids Res. 13:3047-3060). All reactions were done in 100 mM Hepes pH 7.4, 10 mM EDTA, 10 mM DTT, […], 5% glycerol using the indicated P-labeled DNA and DCMTase concentrations, incubated on ice for 5 minutes and loaded on a 1×TBE(89 mM Tris-HCl pH 8.3, 89 mM boric acid, 2 mM EDTA), 6% polyacrylamide gel. Electrophoresis was done at 250 V, 9 mA for 2 hours at 4° C. and the dried gel was exposed to film overnight. The reaction conditions for buffer, temperature, incubation time, cofactor addition and gel composition have all been optimized. Only slightly better complex resolution was obtained under the listed conditions compared to a 10 minute incubation at 37° C. prior to gel loading at room temperature and containing either cofactor S-adenosyl-L-methionine, product S-adenosyl-L-homocysteine, or the AdoMet analog sinefungin. Hepes reaction buffer at pH 7.4 produced sharper banding than Tris-HCl at pH 8.0. […] Subsequent assays used a limiting and constant enzyme concentration with varying DNA concentrations.
(§1) Steady-state kinetic analyses of the DCMTase with the same 30 base-pair DNA substrates used in these studies indicate that Kₘ^DNA is 1000- to 50,000-fold higher (Flynn, J., et al., 1996, Murine DNA cytosine-C5 methyltransferase: Pre-steady- and steady-state kinetic analyses with regulatory DNA sequences, Biochemistry 35:7308-7315) than the DNA concentrations used to generate FIG. 2 and used by Reale et al, 1995, supra. […] Therefore, the stability of protein:DNA was determined by keeping the enzyme at a constant concentration (100 nM) and varying the amount of added DNA (Dubey & Roberts, 1992, supra).

[5] = target: T2, DNA cytosine-5 methyltransferase …; experiment: inhibition; substrate inhibition; KmDNA 0.31 +/- 0.13 µM; conditions: tags: none; purified from mouse erythroleukemia (MEL) cells; label: 32P (gel shift)
Method: To distinguish between this and alternative explanations, a short 30 base-pair DNA substrate was tested for inhibition at high concentrations. […] Initial velocity data for both substrates were fit to equation 1, which is a standard equation for analyzing substrate inhibition. Kₘ^DNA was determined to be 5.5+/−0.9 pM and 0.31+/−0.13 μM, and Kᵢ^DNA was 1010+/−170 pM and 43+/−22 μM for poly(dI.dC:dI.dC) and GC-box a/b, respectively (Table 3). In both cases, DNA concentrations greater than 20 times Kₘ^DNA caused substrate inhibition. AdoMet utilization was calculated to be less than 0.5%. Product inhibition by S-adenosyl homocysteine formation is therefore unlikely. AdoMet substrate inhibition was not observed at concentrations up to 30 times Kₘ^AdoMet. The substrate inhibition observed implicates a second DNA molecule binding to the enzyme and inhibiting catalysis.

[6] = target: T2, DNA cytosine-5 methyltransferase …; experiment: EMSA; unit printed as mM (text indicates micromolar); Hepes pH 7.4, 10 mM EDTA, on ice; conditions: tags: none; purified from mouse erythroleukemia (MEL) cells; label: 32P (gel shift)
Method: (§2) Gel mobility shift assays (GMSA) were performed with minor revisions to the original procedures (Fried, M., & Crothers, D. M., 1981, Equilibria and kinetics of the lac repressor-operator interactions by polyacrylamide gel electrophoresis, Nucleic Acids Res. 9:6505-6525; Garner, M. M. & Revzin, A., 1981, A gel electrophoresis method for quantifying the binding proteins to specific DNA regions: applications to components of the Escherichia coli lactose operon regulatory system, Nucleic Acids Res. 13:3047-3060). […]
as §1

[7] = target: T2, DNA cytosine-5 methyltransferase …; experiment: EMSA; unit printed as mM (text indicates micromolar); free enzyme; conditions: tags: none; purified from mouse erythroleukemia (MEL) cells
Method: as §2, §1

[8] = target: T2, DNA cytosine-5 methyltransferase …; experiment: inhibition; Kii, uncompetitive with poly(dIdC:dIdC); 25 +/- 10 nM competitive with AdoMet; calculated KI 2.5 nM for DCMTase:poly(dIdC:dIdC) complex; Tris pH 8.0, 10 mM EDTA; conditions: tags: none; purified from mouse erythroleukemia (MEL) cells

Nc1ncn([C@H]2C[C@H](O)[C@@H](CO)O2)c(=O)n1 [5-Aza-deoxycytidine, 5-aza-2′-deoxycytidine]
stability in solution [1]: unstable in solution
carcinogenicity and mutagenicity [2]: may be carcinogenic as well as mutagenic

C[S+](CC[C@H](N)C(=O)[O-])C[C@H]1O[C@@H](n2cnc3c(N)ncnc32)[C@H](O)[C@@H]1O (stereo partly drawn) [AdoMet, S-adenosyl-L-methionine]
AdoMet substrate inhibition (DCMTase): not observed

CTGGATCCTTGCCCCGCCCCTTGAATTCCC (ssDNA) [GC-box b]
Ki [3]: 3600 nM
Kd [4]: 1300 nM

B1: GC-box a/b (dsDNA)
DNA 1: GGGAATTCAAGGGGCGGGGCAAGGATCCAG
DNA 2: CTGGATCCTTGCCCCGCCCCTTGAATTCCC
Ki [5]: 43000 nM
Kd [6]: 420 nM

CTGGATCCTTGCCCCGCCCCTTGAATTCCC (ssDNA, 5mC at position 15 (central CpG)) [GC-box bMET]
Kd [7]: 880 nM
Ki [8]: 20 nM
